Test results from the DeepSol protein solubility set.

Assay: soluble on expression in E. coli; label from the status in PepcDB or PDB records

Sequence | soluble on expression in E. coli
MSFVHQKCRNIDTVYLGSNIHRLNVPDNLVKWSQEWSGYNPPAHTDPKVDGAVWADPEIDEKTFQPSWNAIDGKINRVSYVCQYSFDPVTLRPLNPIGRTGLSGRGLLGRWGPNHAADPIVSRTNDNGDLEFVAVQRHDNGEWAIPGGMVDAGEHVSQTLRREFAEEAMHGIVDSENLDELWNNGKELYRGYVDDPRNTDNAWMETVVFNFHDSKGLLKNVALQAGDDAKALRWIAVNSNEPLYASHSHFIDLLKESHSH | not soluble
ANKMALLIDGPNMLRKEFNVDLDKVRDALEQFGDIVVGRVYLNQYASDKLIEAIANQGFEPRISAGDVDVEMAVEGTELIFNKNIDTIVYMTRDADFLPAIRKAKERGKQIIVVGAEPGFSTAIQNIADHVIRVEEDFE | not soluble
MHGTCLSGLYPEPFTHNSHDYPHFNIYISFGGPKYCITALNTYVIPLLHHILTTQFIHTYFNIPTKSPPKSPKHKNYLSFNFTK | soluble
MSLTELPRIISVDDHVIEPAHLFETWLPKKYRDRGPKPLTAGIGELAYVGGKYQITMDPKGPPTDWWIYEDLKFPYKRNIAAVGFDRDEMTLEGITRAEMRRGCWDPVERLKDMDANHVEGSLCFPTFPRFCGQTFAEAHDKEVALACVRAYNDWMVEEWCGDSGGRLIPLCLIPLWDIGLAVAEIRRNAARGVKAVTFSEIPTHLGLPSIHSGYWDPFFAVCQETGTVVNMHIGSSSQMPAASPDAPPAVQAALSFNNAMASMMDFLFSGVLVKFPRLKLAYSEGQMGWIPYALERADDVWEEHRAWGGVRDLIPEPPSTYYYRQIFCCFFRDKHGVASIDVVGRDNATFETDYPHVDSTFPHTKEVALDHVEGLDDETVYKLMRGNAIRMLDLDLDRDLDHLGNRDHLGARDTLSSRDKADREGHHHHHH | soluble
GPGSMLRLGQPTLTAMRCVPAASASATAVAPTTSYPSTSAALLANTRAIHGEVRHQNTDYDNTRIPWDFTTSSYEKIHNEILPKFPRGRRISATIPLLHLAQQQQGGYIPVTAMYKIAKICEVPPMHVFETVTFYSMFNRHPVGKYHIQFCRTTPCMLCGADELMERTMHYLNVRMHGTTSDGLITIGEMECLGACVNAPMLVVSDYSNPPNFSYDYMEDLTWESIKTLVENLRGGKPFKIGSQRLDRRYAEPAGGRTSLLFKEPPGPYCRDFDAEPDKKADAASPKK | not soluble
MAKAKAAPKKSVKKVEKSPSPEDSGIRRSGRQRIEMGKYEEGFDRHELEMVLRASLNEANQQGIKVPSTSSTASASAPAPVKKEIKPKNKPAPVPVVEKKRTIPSKKERDAERKALAAAAAAAATLTSMKKAPIKKSVPSTSSEADSTTPKKKGSAVKAKKVTIKTPSSEPAELTSSAAPVPVAVPEVPTAEATTSATTTPTTTNATIVKKEETKAEQPVKKVVKKKAISKKPPTTTNVTSTSDSSAAAAAAKKKKKPVVPKLSTKPTKQYLENEKQMRLMATQKCTYKEPKSLEKRIYFIPFYSLKLAKKNDQISYLNLISFIHKNLFFNF | soluble
MNSTSIYILVALHPIITLTNMPNTAMEATELLKEIQKHDSQQAFRSLYDMYYDRFFRIAFYYLQRDEWAQEVILDVFTTLWNHRKSQLIPDDFNKYSYILIRNAALNYLEKEQRREASPLENMPEISSSNLSPEEQMMNEELFNIYENSLNELPERCRTIFIKVREEKQSYASVAEELNISPKTVDAQLQKAVTRLKEKINNYFRNRR | not soluble
MAPTLLELTASIVSSHAAVSELSTEELVQEIQKVHATLQQLEGGAAAPEVAAEEAKAPAMTLKKAFQADQVCCMICGKGGMKTLTRHLAQVHQMKPGEYRKQFNIPSSQPLTAKKFSEARKQMAKDRGLAENLAKARAVRAAKIQEKKAAAEKPAKTKATRAKKATA | not soluble
MGSDKIHHHHHHMVEAQRVKEDEDAIRQALASLKNATGIPVTMYASVQSDSRLLINQWVGLRTPALQNLIIDNGVGVGGRVLKTRRPVGVSDYTRANVISHDLDPVIQDEGLHSIVAVPVIVQREVRGVLYVGVHSPVRLGDKVIEEVTMTARVLEQELAINSASRRSDNPRGGVAKQGRMMNGAEWEQIRSTHSKLRMLANRIEQEELRQELEELCDQMVAPVHVKQTTKLSARELDVLSCVALGHTNVEAAEEMGIGAETVKSYLRSVMRKLGAHTRYEAVNAARRIGALP | not soluble
MSLTSVKEFPTIKAVRSFVIGGVGSGGDYHNVEGGHWLIDSPISTPCSRWEEYRKSRTSWGINVLGSFFVEIEASDGTVGYATGFGGPPACWLTHQHFERFLIGADPRRTNHLFEQMYRASMFYGRKGLPIAVISVIDLALWDLLGKIRKEPVYQMIGGATKDRLNFYCTGPEPTAAREMGFWGAKVPLPYCPDEGHVGMKKNIEFLRKHREAVGPDFPLMVDCYMSLNVSYTIELAEKCKDLDINWWEECLSPDDTDGFEQIKRAHPTLKFTTGEHEYSRFGFRKLVEGRNLDIIQPDVMWLGGLTELLRVSAMAAAYDIPVVPHASGPYSYHFVMSQPNTPFQEYLANSPDGKSVLPVFGDLFLDEIIPSKGFLTPKDLDQPGFGLTLNPAARAKMIPGEFWVNPAPLKALTSGAPAEEKKEGAVEAVVNKVQELTTSEGHHHHHH | soluble
HRPEGLEQLEAQTNFTKRELQVLYRGFKNECPSGVVNEETFKQIYAQFFPHGDASTYAHYLFNAFDTTQTGSVKFEDFVTALSILLRGTVHEKLRWTFNLYDINKDGYINKEEMMDIVKAIYDMMGKYTYPVLKEDTPRQHVDVFFQKMDKNKDGIVTLDEFLESCQEDDNIMRSLQLFQNVM | soluble
MWKFATRLGLESVDTIAATNPREAIAAVAAGQADYACVAIENSVDGPVTPTFDALATIDGVRIFHELDLPIAFAIMQRTGAPLRRFATHPVAYQQVKTWLAANAPAAEFVPASSNAEAARMAKENIVDFAAAPARAAEVYGLDIIADGVADVTGARTRFVLVGHADT | not soluble
MEDCRGDGSRREIERRRKYGRELQDLREGGEEFEYYFFVSNVFRTKLQKMPGADYSAVKGGGLKLKAGKKNLFKVGKEKKKKNKDDKEKIDPDTVENGGWRKIADEFDMKGGTNVAIEVASGAGSTRTYVAAMDNGKFTIGFPHPEGEGPNPEEIFALVKTPDDSKISLKTGFGRYVGVDSEYQLVAMAEAIGSREQFVLVFQEGKTAFQAVSSPLFLSTVPNKEGHIYVASRTATENEMVNIRTDAIQEGPVDWRSVEDRKNARECETAYVKMYQHSKVDLKNRHIAIDVKDKKGVKKAQADGSAHELLLDRRMKMKSDRYC | not soluble
MAEIEKTVLVGYSASQMFRLVDTVENYPDFLPWCSGASMKLMEDNETAQATVHIDYHHIKHSFTTKNTRHPPELIKMELVEGPFEKLNGYWRFIPLSENACKIEFQLHYTFSHKLLEKLVGPVFYVIANNFVEAFVEQAEKIYGPSILEHHHHHH | soluble
MGMIQLQNPSHPTGLLCKANQMRLAGTLCDVVIMVDSQEFHAHRTVLACTSKMFEILFHRNSQHYTLDFLSPKTFQQILEYAYTATLQAKAEDLDDLLYAAEILEIEYLEEQCLKMLETIQ | soluble
PFWSCLHNQLWNYREADQNRINRNQLPLYGVEGRFERMNQHPNAGSHSFSIGVTEVLNSNLLIELRADDIEYVYQRSPGKIISVIIPTFEALTQFGVATITTQNTGEVEASYSLTFDCSTGVTLMEEQYFIIKPKETSIRSFKIYPTTNQAAKYTCSAILKDSDFSEVDRAECQFSTMATVLDNGSQITPFQPPKSSINDFFESIESIGKKLWEGLRDFITGKACRRKCSSFFDFSCHIQYIC | not soluble
MGGSHHHHHHGMASALAAVDIRDNLLGISWVDSSWIPILNSGSVLDYFSERSNPFYDRTCNNEVVKMQRLTLEHLNQMVGIEYILLHAQEPILFIIRKQQRQSPAQVIPLADYYIIAGVIYQAPDLGSVINSRVLTAVHGIQSAFDEAMSYCRYHPSKGYWWHFKDHEEQDKVRPKAKRKEEPSSIFQRQRVDALLLDLRQKFPPKFVQLKPGEKPVPVDQTKKEAEPIPETVKPEEKETTKNVQQTVSAKGPPEKRMRLQ | not soluble
MMETQNVKDTVRQIFTEYLTANGHRKTPERYAILETIYSIDGHFDIDMLYSRMMDQENFRVSRATLYNTIILLINARLIIKHQFGTSSQYEKSYNRETHHHQICTQCGKVTEFQNEELQHAIENTKLSRFQLSHYSLYIYGLCSKCDRANKRKKVSNNNKKEK | not soluble
MKGIEVENLKFSHNGREILHDINFEIDKGSFLIILGPNGAGKTTLLRCIAGILKYKGSIKVLGNDIKELSRIELAKLLAYVPQRIEPGFLRVFDFVLLGRKPYMGLNPGRKDLKAVEDALRLLGIQRLEDRIMKTLSGGELQKVAIARAIAQETPVILLDEPTNNLDPKSQIEVMEIIKDLVKRGKTVVTVMHDLTLALRFGEEFLFLKDGRSTGLLTREELEEKILSETYGVKIRVARVEGEVIPLVGL | soluble
MKVVLATGNPGKVRELKEGLAPLGWTLLTLADFALRMPKEEGATFLENALLKAAYVAKATGLPALADDSGLEVYALGGEPGVYSARYGGRATDRERNVYLLERMRHLKGEERKARFVAVLVLAYPDGHAEAYEGSVEGVILEAPRGEGGFGYDPLFYVPEAGKTFAEMGLEEKARYSHRGKALRALLEAYKDGPPPREVSKLE | soluble
MSLDNGEAAIIIGEFYKRNDQWKFRALSEGSAYGLSAFGRKIGLEVDDRHPRRPSGGSGGPAGGPRHESATGTAFVVGPAHVMTCAHVIEDMGVFYINSLEGRYKAEAVVIDRRNDIALLRVQGAPPLSAVTFREGQGCEPGDTVAVLGYPLASISGGGLQVTQGGISGLFGLHNDASLFQFTAPIQPGSSGSPLFDNGGAVIGMVTSTVPDGQNMNFAVKSALLMSFLQACRIDEGHHHHHH | not soluble
MNLRSVFTVEQQRILQRYYENGMTNQSKNCFQLILQCAQETKLDFSVVRTWVGNKRRKMSSKNSESGTATTGTSLSAPDITVRNVVNIARPSSQQSSWTSANNDVIVTGIYSPASSSSRQGTNKHTDTQITEAHKIPIQKTATKNDTEFQLHIPVQRQVAHCKNASLLLGEKTIILSRQTSVLNAGNSVFNHAKKNYGNSSVQASEMTVPQKPSVCHRPCKIEPVGIQRSYKPEHTGPALHNLCGQKPTIRDPYCRTQNLEIREVFSLAVSDYPQRILGGNAPQKPSSAEGNCLSIAMETGDAEDEYAREEELASMRAQIPSYSRFYESGSSLRAENQSTTLPGPGRNMPNSQMVNIRDMSDNVLYQNRNYHLTPRTSLHTASSTMYSNTNPLRSNFSPHFASSNQLRLSQNQNNYQISGNLTVPWITGCSRKRALQDRTQFSDRDLATLKKYWDNGMTSLGSVCREKIEAVATELNVDCEIVRTWIGNRRRKYRLMGIEVPPPRGGPADFSEQPESGSLSALTPGEEAGPEVGEDNDRNDEVSICLSEGSSQEEPNEVVPNDARAHKEEDHHAVTTDNVKIEIIDDEESDMISNSEVEQVNSFLDYKNEEVKFIENELEIQKQKYFKLQTFVRSLILAMKADDKEQQQALLSDLPPELEEMDFNHASLEPDDTSFSVSSLSEKNVSESL | soluble
MRGSHHHHHHTDPALRAALKATIYKATVNVADLDRNQFLDASLTLARHPSETQERMMLRLLAWLKYADERLQFTRGLCADDEPEAWLRNDHLGIDLWIELGLPDERRIKKACTQAAEVALFTYNSRAAQIWWQQNQSKCVQFANLSVWYLDDEQLAKVSAFADRTMTLQATIQDGVIWLSDDKNNLEVNLTAWQQPSGLCGR | soluble
